Measured values reported in the RNAGym collection of RNA variant scans (doi:10.1021/acssynbio.7b00057).

B1: Pistol ribozyme (parent)
chain: GGGUCGUUGUUCCAUAAUCGCGUGGAUAUGGCACGCAAGUUUCUACCGGGCACCGUAAAUGUCCGACUGGAGCCGUUCGGGCGGCUAUAAACAGACCUCAGGCCCGAAGCGUGGCGGCACCUGCCGCCGGUGGUAAAAAAGAUCGGAAGAGCACACGUCU

Variants of: B1
Test: aptazyme ON/OFF ratio, guanine; higher = stronger switching; co-transcriptional cleavage with and without guanine

| Variant | aptazyme ON/OFF ratio |
| --- | --- |
| U7G U8C U11C C12U C13U | 1.45 |
| U7G U8G G9A U10A U11G C12U C13A | 1.13 |
| U7G U8G G9A U10A U11G C12U C13U | 1.35 |
| U7G U8G G9A U10A U11G C12U C13G | 1.12 |
| U7G U8G G9A U10A C12A C13A | 1.2 |
| U7G U8G G9A U10A C12A C13U | 1.06 |
| U7G U8G G9A U10A C12A C13G | 1.04 |
| U7G U8C U10C U11C | 1.14 |
| U7G U8C U10C U11A | 2.21 |
| U7G U8C U10C U11G | 1.27 |
| U7G U8C U10G C12U C13G | 1.22 |
| U7G U8C U10G C12U C13A | 1.34 |
| U7G U8C U10G C12U C13U | 1.36 |
| U7G U8C U10G U11A C12G C13U | 1.23 |
| U7G U8C U10G U11A C12G C13G | 1.21 |
| U7G U8C U10G U11A C12G C13A | 1.09 |
| U7G U8C U10G C12G C13G | 1.13 |
| U7G U8C U10G C12G C13A | 1.12 |
| U7G U8C U10G C12G C13U | 1.08 |
| U7G U8G G9A C12U C13A | 1.27 |
| U7G U8G G9A C12U C13G | 1.22 |

| Variant | aptazyme ON/OFF ratio |
| --- | --- |
| U7G U8G G9A C12U C13U | 1.41 |
| U7G U8C U11G C12U C13A | 1.14 |
| U7G U8C U11G C12U C13U | 1.22 |
| U7G U8C U11G C12U C13G | 1.08 |
| U7G U8C U10C U11G C12G C13U | 1.07 |
| U7G U8C U10C U11G C12G C13A | 1.13 |
| U7G U8C U10C U11G C12G C13G | 1.08 |
| U7G U8G G9A U10A U11A C12G C13U | 1.33 |
| U7G U8G G9A U10A U11A C12G C13G | 1.1 |
| U7G U8G G9A U10A U11A C12G C13A | 1.15 |
| U7G U8C U10C U11C C12G C13A | 1.16 |
| U7G U8C U10C U11C C12G C13U | 1.14 |
| U7G U8C U10C U11C C12G C13G | 1.06 |
| U7G U8C U10C U11C C12G | 1.27 |
| U7G U8C U10C U11C C12U | 1.16 |
| U7G U8C U10C U11C C12A | 1.29 |
| U7G U8G G9A U10A U11C C12G C13G | 1.22 |
| U7G U8G G9A U10A U11C C12G C13U | 1.13 |
| U7G U8G G9A U10A U11C C12G C13A | 1.13 |
| U7G U8G G9A U10A U11C | 1.02 |
| U7G U8G G9A U10A U11A | 1.53 |

| Variant | aptazyme ON/OFF ratio |
| --- | --- |
| U7G U8G G9A U10A U11G | 2.19 |
| U7G U8C U10G U11G C12A C13A | 1.09 |
| U7G U8C U10G U11G C12A C13U | 1.29 |
| U7G U8C U10G U11G C12A C13G | 1.1 |
| U7G U8C U11A C12U C13A | 1.2 |
| U7G U8C U11A C12U C13U | 1.21 |
| U7G U8C U11A C12U C13G | 1.14 |
| U7G U8C U10G U11G C13U | 1.3 |
| U7G U8C U10G U11G C13G | 1.26 |
| U7G U8C U10G U11G C13A | 1.22 |
| U7G U8C U10C C12G C13G | 1.24 |
| U7G U8C U10C C12G C13U | 1.28 |
| U7G U8C U10C C12G C13A | 1.2 |
| U7G U8G G9A U10A U11G C13U | 1.14 |
| U7G U8G G9A U10A U11G C13G | 1.16 |
| U7G U8G G9A U10A U11G C13A | 1.09 |
| U7G U8G G9A U10C U11A C12U C13A | 1.06 |
| U7G U8G G9A U10C U11A C12U C13G | 1.08 |
| U7G U8G G9A U10C U11A C12U C13U | 1.08 |
| U7G U8G G9A U10C C13A | 1.12 |
| U7G U8G G9A U10C C13G | 1.12 |

| Variant | aptazyme ON/OFF ratio |
| --- | --- |
| U7G U8G G9A U10C C13U | 1.59 |
| U7G U8G G9A U10C U11G C12G C13G | 1.14 |
| U7G U8G G9A U10C U11G C12G C13U | 1.08 |
| U7G U8G G9A U10C U11G C12G C13A | 1.1 |
| U7G U8G G9A | 3.82 |
| U7G U8C U10C U11A C13U | 1.35 |
| U7G U8C U10C U11A C13G | 1.07 |
| U7G U8C U10C U11A C13A | 1.18 |
| U7G U8G G9A U10C C12A C13U | 1.32 |
| U7G U8G G9A U10C C12A C13G | 1.14 |
| U7G U8G G9A U10C C12A C13A | 1.13 |
| U7G U8C U10G U11C C13A | 1.33 |
| U7G U8C U10G U11C C13U | 1.4 |
| U7G U8C U10G U11C C13G | 1.19 |
| U7G U8G G9A U10A U11C C12A C13U | 1.09 |
| U7G U8G G9A U10A U11C C12A C13A | 1.06 |
| U7G U8G G9A U10A U11C C12A C13G | 1.17 |
| U7G U8G G9A U10A C12U C13A | 1.22 |
| U7G U8G G9A U10A C12U C13U | 1.35 |
| U7G U8G G9A U10A C12U C13G | 1.15 |
